In US20250375530A1, “ROR1/EGFR BI-SPECIFIC ANTIGEN BINDING MOLECULES” (ALMAC DISCOVERY LIMITED, priority 2022, published 2025):

Experiment: Analytical SEC of P3A1 loop variants (Superdex 75 increase 10/300 GL, PBS pH 7.4)
Assay type: physicochemical
Description: Chromatography was carried out in PBS pH 7.4.

Row | Molecule | % monomer by SEC [%] | SEC elution volume [mL]
1 | P3A1 G1 AE3: P3A1 G1 loop variant VNAR, SEQ ID NO: 77 (protein) TRVDQSPSSLSASVGDRVTITCVLTGTRYGLYSTYWYRKNPGSSDEERISISGRYSESVNKGTKSFTLTISSLQPEDSATYYCRAREARHPWLRQWYDGAGTKVEIKQACKAHHHHHHG | 100 | 17.3
2 | P3A1 G1 NAC6: P3A1 G1 loop variant VNAR, SEQ ID NO: 79 (protein) TRVDQSPSSLSASVGDRVTITCVLTDTRYALYSTYWYRKNPGSTDEERISIGGRYSESVNKGSKSFTLTISSLQPEDSATYYCRAREARHPWLRQWYDGAGTKVEIKQACKAHHHHHHG | 100 | 17.3
3 | P3A1 G1 NAG8: P3A1 G1 loop variant VNAR, SEQ ID NO: 81 (protein) TRVDQSPSSLSASVGDRVTITCVLTGTKYGLYATYWYRKNPGSPNKDRMIIGGRYSESVNNGTKSFTLTISSLQPEDSATYYCRAREARHPWLRQWYDGAGTKVEIKQACKAHHHHHHGAEFEQKLISEEDLG | 100 | 14.8
4 | P3A1 G1: humanised version of the ROR1 binding VNAR P3A1, SEQ ID NO: 114 (protein) TRVDQTPSSLSASVGDRVTITCVLTDTSYGLYSTYWYRKNPGSSNKEQISISGRYSESVNKGTKSFTLTISSLQPEDSATYYCRAREARHPWLRQWYDGAGTKVEIKQASGAHHHHHHGAEFEQKLISEEDL | 100 | 15.47
